Experimental findings from US20210380680A1 (ZLLP, published 2021) are described below.

Broadly, the EC50 is the concentration needed to bring the measured effect to its halfway point. Low values mean greater potency, high ones weaker potency.

Test [1] addresses T1, human Claudin 18.2 (CLDN18.2) (human, UniProt P56856-2 1-261).
T1 construct: whole, on cells; recombinantly expressed on CHO, HEK293, NCI-N87, NUGC4 or PANC-1 cells; also called CHO-CLDN18.2
Kind of test: FACS on CHO-CLDN18.2 cells.

The target in test [2] is T1, human Claudin 18.2 (CLDN18.2). Kind of test: cell-based or functional assay.
Test [3] shares this target. As to the kind of experiment: cell-based or functional assay. The source holds these as a separate data set.

B1: 364D1A7-H2L3 (antibody, V domains shown)
VH: EVQLVESGGGLVQPGGSLRLSCAASGFTFSSFGMHWVRQAPGKGLEWVAYISSGSGSIYYADTVKGRFTISRDNPKNSLYLQMNSLRAEDTAVYYCATSYYYGNALEYWGQGTTVTVSS
VL: DVVLTQSPDSLAVSLGERATINCKSSQSLFNVGNQKNYLTWYQQKPGQTPKLLIYWASTRKSGVPDRFSGSGSGTDFTLTISSLQAEDVAVYYCQNVYSYPLTFGGGTKVEIK
notes: humanized IgG; constant regions not specified
On to B1, for which the EC50 in test [1] was 4.4 nM.

B2: 364D1A7-H1L3 (antibody, V domains shown)
VH: EVQLVESGGGLVQPGGSLRLSCAASGFTFSSFGMHWVRQAPGKGLEWVSYISSGSGSIYYADTVKGRFTISRDNAKNSLYLQMNSLRAEDTAVYYCATSYYYGNALEYWGQGTTVTVSS
VL: DVVLTQSPDSLAVSLGERATINCKSSQSLFNVGNQKNYLTWYQQKPGQTPKLLIYWASTRKSGVPDRFSGSGSGTDFTLTISSLQAEDVAVYYCQNVYSYPLTFGGGTKVEIK
notes: as for B1
In turn, B2 displayed an EC50 in test [1] of 4.1 nM.

B3: 364D1A7-H1L4 (antibody, V domains shown)
VH: EVQLVESGGGLVQPGGSLRLSCAASGFTFSSFGMHWVRQAPGKGLEWVSYISSGSGSIYYADTVKGRFTISRDNAKNSLYLQMNSLRAEDTAVYYCATSYYYGNALEYWGQGTTVTVSS
VL: DVVLTQSPDSLAVSLGERATISCKSSQSLFNVGNQKNYLTWYQQKPGQTPTLLIYWASTRKSGVPDRFSGSGSGTDFTLTISSLQAEDVAVYYCQNVYSYPLTFGGGTKVEIK
notes: as for B1
In the case of B3, it took 4.03 nM to reach a half-maximal effect in test [1] (EC50).

B4: 364D1A7-H3L5 (antibody, V domains shown)
VH: EVQLVESGGGLVQPGGSLRLSCAASGFTFSSFGMHWVRQAPGKGLEWVAYISSGSGSIYYADTVKGRFTLSRDNPKNSLYLQMNSLRAEDTAVYYCATSYYYGNALEYWGQGTTVTVSS
VL: DVVLTQSPDSLAVSLGERATISCKSSQSLFNVGNQKNYLTWYQQKPGQTPTLLIYWASTRKSGVPDRFTGSGSGTDFTLTISSLQAEDVAVYYCQNVYSYPLTFGAGTKVEIK
notes: as for B1
The molecule B4 returned an EC50 in test [1] of 4.53 nM.

B5: 364D1A7-H3L4 (antibody, V domains shown)
VH: EVQLVESGGGLVQPGGSLRLSCAASGFTFSSFGMHWVRQAPGKGLEWVAYISSGSGSIYYADTVKGRFTLSRDNPKNSLYLQMNSLRAEDTAVYYCATSYYYGNALEYWGQGTTVTVSS
VL: DVVLTQSPDSLAVSLGERATISCKSSQSLFNVGNQKNYLTWYQQKPGQTPTLLIYWASTRKSGVPDRFSGSGSGTDFTLTISSLQAEDVAVYYCQNVYSYPLTFGGGTKVEIK
notes: as for B1
In the case of B5, the EC50 in test [1] worked out at 4.78 nM.

B6: 364D1A7-H3L2 (antibody, V domains shown)
VH: EVQLVESGGGLVQPGGSLRLSCAASGFTFSSFGMHWVRQAPGKGLEWVAYISSGSGSIYYADTVKGRFTLSRDNPKNSLYLQMNSLRAEDTAVYYCATSYYYGNALEYWGQGTTVTVSS
VL: DIVLTQSPDSLAVSLGERATINCKSSQSLFNVGNQKNYLTWYQQKPGQTPKLLIYWASTRKSGVPDRFSGSGSGTDFTLTISSLQAEDVAVYYCQNVYSYPLTFGGGTKVEIK
notes: as for B1
B6 yielded an EC50 in test [1] of 4.05 nM.

B7: 364D1A7-H2L2 (antibody, V domains shown)
VH: EVQLVESGGGLVQPGGSLRLSCAASGFTFSSFGMHWVRQAPGKGLEWVAYISSGSGSIYYADTVKGRFTISRDNPKNSLYLQMNSLRAEDTAVYYCATSYYYGNALEYWGQGTTVTVSS
VL: DIVLTQSPDSLAVSLGERATINCKSSQSLFNVGNQKNYLTWYQQKPGQTPKLLIYWASTRKSGVPDRFSGSGSGTDFTLTISSLQAEDVAVYYCQNVYSYPLTFGGGTKVEIK
notes: as for B1
Regarding B7, in test [2], the “% ADCC @ 6.67 nM, NCI-N87-CLDN18.2, FcR-TANK” value (“% ADCC @ 6.67 nM” below) was 9.4% and the “ADCC EC50, NCI-N87-CLDN18.2, FcR-TANK” value was 0.22 nM. For the same molecule, the EC50 in test [1] was found to be 6.14 nM. In test [3], the “% specific cytotoxicity @ 6.67 nM, NUGC4-CLDN18.2, PBMC” value (shortened to “% specific cytotoxicity @ 6.67 nM”) worked out at 26.6% and the “ADCC EC50, NUGC4-CLDN18.2, PBMC” value was determined as 9.69 nM.

B8: 364D1A7-H4L5 (antibody, V domains shown)
VH: DVQLVESGGGLVQPGGSLRLSCAASGFTFSSFGMHWVRQAPGKGLEWVAYISSGSGSIYYADTVKGRFTLSRDNPKNTLYLQMNSLRAEDTAVYYCATSYYYGNALEYWGQGTTVTVSS
VL: DVVLTQSPDSLAVSLGERATISCKSSQSLFNVGNQKNYLTWYQQKPGQTPTLLIYWASTRKSGVPDRFTGSGSGTDFTLTISSLQAEDVAVYYCQNVYSYPLTFGAGTKVEIK
notes: as for B1
Turning to B8, in test [2], the “% ADCC @ 6.67 nM” value was found to be 12% and the “ADCC EC50, NCI-N87-CLDN18.2, FcR-TANK” value was determined as 0.34 nM. This molecule came in with an EC50 in test [1] of 4.38 nM. In addition, in test [3], the “% specific cytotoxicity @ 6.67 nM” value was 26.4% and the “ADCC EC50, NUGC4-CLDN18.2, PBMC” value worked out at 6.4 nM.

B9: 364D1A7-H2L5 (antibody, V domains shown)
VH: EVQLVESGGGLVQPGGSLRLSCAASGFTFSSFGMHWVRQAPGKGLEWVAYISSGSGSIYYADTVKGRFTISRDNPKNSLYLQMNSLRAEDTAVYYCATSYYYGNALEYWGQGTTVTVSS
VL: DVVLTQSPDSLAVSLGERATISCKSSQSLFNVGNQKNYLTWYQQKPGQTPTLLIYWASTRKSGVPDRFTGSGSGTDFTLTISSLQAEDVAVYYCQNVYSYPLTFGAGTKVEIK
notes: as for B1
Turning to B9, the EC50 in test [1] was 3.35 nM.

B10: 364D1A7-H4L3 (antibody, V domains shown)
VH: DVQLVESGGGLVQPGGSLRLSCAASGFTFSSFGMHWVRQAPGKGLEWVAYISSGSGSIYYADTVKGRFTLSRDNPKNTLYLQMNSLRAEDTAVYYCATSYYYGNALEYWGQGTTVTVSS
VL: DVVLTQSPDSLAVSLGERATINCKSSQSLFNVGNQKNYLTWYQQKPGQTPKLLIYWASTRKSGVPDRFSGSGSGTDFTLTISSLQAEDVAVYYCQNVYSYPLTFGGGTKVEIK
notes: as for B1
In test [1], B10 displayed an EC50 of 4.56 nM.

B11: 364D1A7-H4L4 (antibody, V domains shown)
VH: DVQLVESGGGLVQPGGSLRLSCAASGFTFSSFGMHWVRQAPGKGLEWVAYISSGSGSIYYADTVKGRFTLSRDNPKNTLYLQMNSLRAEDTAVYYCATSYYYGNALEYWGQGTTVTVSS
VL: DVVLTQSPDSLAVSLGERATISCKSSQSLFNVGNQKNYLTWYQQKPGQTPTLLIYWASTRKSGVPDRFSGSGSGTDFTLTISSLQAEDVAVYYCQNVYSYPLTFGGGTKVEIK
notes: as for B1
In turn, B11 displayed an EC50 in test [1] of 3.85 nM. This EC50 and that of the molecule before are within 1.5-fold of each other.

B12: 364D1A7-H1L5 (antibody, V domains shown)
VH: EVQLVESGGGLVQPGGSLRLSCAASGFTFSSFGMHWVRQAPGKGLEWVSYISSGSGSIYYADTVKGRFTISRDNAKNSLYLQMNSLRAEDTAVYYCATSYYYGNALEYWGQGTTVTVSS
VL: DVVLTQSPDSLAVSLGERATISCKSSQSLFNVGNQKNYLTWYQQKPGQTPTLLIYWASTRKSGVPDRFTGSGSGTDFTLTISSLQAEDVAVYYCQNVYSYPLTFGAGTKVEIK
notes: as for B1
As for B12, in test [2], the “% ADCC @ 6.67 nM” value turned out to be 9.1% and the “ADCC EC50, NCI-N87-CLDN18.2, FcR-TANK” value was determined as 0.26 nM. Further, the EC50 in test [1] stood at 3.96 nM. Further, in test [3], the “% specific cytotoxicity @ 6.67 nM” value stood at 27.5% and the “ADCC EC50, NUGC4-CLDN18.2, PBMC” value was 8.17 nM.

B13: 364D1A7-H2L1 (antibody, V domains shown)
VH: EVQLVESGGGLVQPGGSLRLSCAASGFTFSSFGMHWVRQAPGKGLEWVAYISSGSGSIYYADTVKGRFTISRDNPKNSLYLQMNSLRAEDTAVYYCATSYYYGNALEYWGQGTTVTVSS
VL: DIVMTQSPDSLAVSLGERATINCKSSQSLFNVGNQKNYLTWYQQKPGQPPKLLIYWASTRKSGVPDRFSGSGSGTDFTLTISSLQAEDVAVYYCQNVYSYPLTFGGGTKVEIK
notes: as for B1
The molecule B13 registered an EC50 in test [1] of 3.47 nM.

B14: 364D1A7-H4L2 (antibody, V domains shown)
VH: DVQLVESGGGLVQPGGSLRLSCAASGFTFSSFGMHWVRQAPGKGLEWVAYISSGSGSIYYADTVKGRFTLSRDNPKNTLYLQMNSLRAEDTAVYYCATSYYYGNALEYWGQGTTVTVSS
VL: DIVLTQSPDSLAVSLGERATINCKSSQSLFNVGNQKNYLTWYQQKPGQTPKLLIYWASTRKSGVPDRFSGSGSGTDFTLTISSLQAEDVAVYYCQNVYSYPLTFGGGTKVEIK
notes: as for B1
Molecule B14 had an EC50 in test [1] of 4.51 nM.

B15: 364D1A7-H1L2 (antibody, V domains shown)
VH: EVQLVESGGGLVQPGGSLRLSCAASGFTFSSFGMHWVRQAPGKGLEWVSYISSGSGSIYYADTVKGRFTISRDNAKNSLYLQMNSLRAEDTAVYYCATSYYYGNALEYWGQGTTVTVSS
VL: DIVLTQSPDSLAVSLGERATINCKSSQSLFNVGNQKNYLTWYQQKPGQTPKLLIYWASTRKSGVPDRFSGSGSGTDFTLTISSLQAEDVAVYYCQNVYSYPLTFGGGTKVEIK
notes: as for B1
Consider B15, for which, in test [1], the midpoint of the response, the EC50, lay at 6.9 nM.

B16: 364D1A7-H4L1 (antibody, V domains shown)
VH: DVQLVESGGGLVQPGGSLRLSCAASGFTFSSFGMHWVRQAPGKGLEWVAYISSGSGSIYYADTVKGRFTLSRDNPKNTLYLQMNSLRAEDTAVYYCATSYYYGNALEYWGQGTTVTVSS
VL: DIVMTQSPDSLAVSLGERATINCKSSQSLFNVGNQKNYLTWYQQKPGQPPKLLIYWASTRKSGVPDRFSGSGSGTDFTLTISSLQAEDVAVYYCQNVYSYPLTFGGGTKVEIK
notes: humanized IgG; constant regions not specified; also called 364D1A7-H41L
Turning to B16, in test [2], the “% ADCC @ 6.67 nM” value was 9.3% and the “ADCC EC50, NCI-N87-CLDN18.2, FcR-TANK” value came out at 0.31 nM. The EC50 in test [1] came to 4.12 nM. Besides, in test [3], the “% specific cytotoxicity @ 6.67 nM” value is 26.4% and the “ADCC EC50, NUGC4-CLDN18.2, PBMC” value amounted to 7.58 nM.

B17: 364D1A7-H2L4 (antibody, V domains shown)
VH: EVQLVESGGGLVQPGGSLRLSCAASGFTFSSFGMHWVRQAPGKGLEWVAYISSGSGSIYYADTVKGRFTISRDNPKNSLYLQMNSLRAEDTAVYYCATSYYYGNALEYWGQGTTVTVSS
VL: DVVLTQSPDSLAVSLGERATISCKSSQSLFNVGNQKNYLTWYQQKPGQTPTLLIYWASTRKSGVPDRFSGSGSGTDFTLTISSLQAEDVAVYYCQNVYSYPLTFGGGTKVEIK
notes: as for B1
Consider B17, for which it took 3.94 nM to reach a half-maximal effect in test [1] (EC50).

B18: 364D1A7-H3L3 (antibody, V domains shown)
VH: EVQLVESGGGLVQPGGSLRLSCAASGFTFSSFGMHWVRQAPGKGLEWVAYISSGSGSIYYADTVKGRFTLSRDNPKNSLYLQMNSLRAEDTAVYYCATSYYYGNALEYWGQGTTVTVSS
VL: DVVLTQSPDSLAVSLGERATINCKSSQSLFNVGNQKNYLTWYQQKPGQTPKLLIYWASTRKSGVPDRFSGSGSGTDFTLTISSLQAEDVAVYYCQNVYSYPLTFGGGTKVEIK
notes: as for B1
Consider B18, for which the EC50 in test [1] is 3.54 nM.
